{"source": "paper PMC4176350", "about": "“A high security double lock and key mechanism in HUH relaxases controls oriT-processing for plasmid conjugation”", "biological_target": "T1, TrwCR (TrwC relaxase domain, TrwC-N293) (Escherichia coli? (plasmid R388), UniProt Q47673 1-293)", "T1 sequence": "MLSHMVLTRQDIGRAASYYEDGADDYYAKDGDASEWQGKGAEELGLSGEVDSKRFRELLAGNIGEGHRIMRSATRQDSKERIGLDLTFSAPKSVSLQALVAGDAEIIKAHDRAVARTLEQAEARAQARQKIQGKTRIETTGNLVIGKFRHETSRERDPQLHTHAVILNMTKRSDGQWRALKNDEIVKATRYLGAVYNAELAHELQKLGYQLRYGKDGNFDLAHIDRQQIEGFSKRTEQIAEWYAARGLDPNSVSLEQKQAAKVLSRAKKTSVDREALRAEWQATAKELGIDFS", "assay": "X-ray crystallography; 1:1.5 protein:DNA; Crystallization: TrwCR 6 mg/ml in 200 mM NaCl, 20 mM Tris-HCl pH 7.5, 1 mM DTT, 0.5 mM EDTA; reservoir 2 M ammonium phosphate, 0.1 M Tris-HCl pH 8.5, 22 C", "conditions": "protein: recombinant; hairpin with 3' single-stranded tail", "data": [{"binder": "GCACCGAAAGGTGCGTATTCTTGGT (structured_DNA)", "note": "[RIV(23+2), nic mutant IV]", "values": [{"measurement": "binding result", "value": "binds"}]}]}
